From patent publication US7604990

Experiments:
[1] = biological target: PDGFR-β (human) (UniProt P09619); assay: cell-based or functional assay
[2] = biological target: PDGFR-α (human) (UniProt P16234); assay: cell-based or functional assay
Chain of PDGFR-α (human) (P16234 24-1089): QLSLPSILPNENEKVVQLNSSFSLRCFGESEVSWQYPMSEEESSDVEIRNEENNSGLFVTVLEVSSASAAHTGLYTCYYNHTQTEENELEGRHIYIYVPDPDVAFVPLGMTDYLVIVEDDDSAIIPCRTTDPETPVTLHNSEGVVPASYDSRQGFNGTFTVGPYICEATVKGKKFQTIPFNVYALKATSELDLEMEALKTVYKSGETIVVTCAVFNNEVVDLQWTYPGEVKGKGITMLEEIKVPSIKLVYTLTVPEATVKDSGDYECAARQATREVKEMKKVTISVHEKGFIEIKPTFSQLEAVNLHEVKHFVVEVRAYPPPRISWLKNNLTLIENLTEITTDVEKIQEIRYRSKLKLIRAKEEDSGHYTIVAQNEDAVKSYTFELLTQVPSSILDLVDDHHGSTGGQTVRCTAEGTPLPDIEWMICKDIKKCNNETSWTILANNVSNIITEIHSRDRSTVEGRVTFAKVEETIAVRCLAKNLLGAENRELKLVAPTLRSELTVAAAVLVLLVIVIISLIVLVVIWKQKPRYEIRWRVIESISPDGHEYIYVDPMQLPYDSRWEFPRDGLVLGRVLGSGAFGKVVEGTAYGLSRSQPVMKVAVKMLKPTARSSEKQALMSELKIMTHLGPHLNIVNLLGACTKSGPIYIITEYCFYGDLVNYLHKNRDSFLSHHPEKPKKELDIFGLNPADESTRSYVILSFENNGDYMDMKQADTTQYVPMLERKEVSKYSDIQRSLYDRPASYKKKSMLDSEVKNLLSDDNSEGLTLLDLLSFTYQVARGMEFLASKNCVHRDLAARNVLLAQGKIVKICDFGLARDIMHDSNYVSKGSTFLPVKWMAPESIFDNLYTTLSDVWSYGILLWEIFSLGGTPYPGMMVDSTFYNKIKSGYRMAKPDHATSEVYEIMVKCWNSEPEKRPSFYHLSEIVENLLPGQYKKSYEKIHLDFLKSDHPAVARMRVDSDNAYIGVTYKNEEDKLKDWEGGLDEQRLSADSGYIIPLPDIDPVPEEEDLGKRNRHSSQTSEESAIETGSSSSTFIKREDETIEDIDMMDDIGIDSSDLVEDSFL

Chain of PDGFR-β (human) (P09619 33-1106): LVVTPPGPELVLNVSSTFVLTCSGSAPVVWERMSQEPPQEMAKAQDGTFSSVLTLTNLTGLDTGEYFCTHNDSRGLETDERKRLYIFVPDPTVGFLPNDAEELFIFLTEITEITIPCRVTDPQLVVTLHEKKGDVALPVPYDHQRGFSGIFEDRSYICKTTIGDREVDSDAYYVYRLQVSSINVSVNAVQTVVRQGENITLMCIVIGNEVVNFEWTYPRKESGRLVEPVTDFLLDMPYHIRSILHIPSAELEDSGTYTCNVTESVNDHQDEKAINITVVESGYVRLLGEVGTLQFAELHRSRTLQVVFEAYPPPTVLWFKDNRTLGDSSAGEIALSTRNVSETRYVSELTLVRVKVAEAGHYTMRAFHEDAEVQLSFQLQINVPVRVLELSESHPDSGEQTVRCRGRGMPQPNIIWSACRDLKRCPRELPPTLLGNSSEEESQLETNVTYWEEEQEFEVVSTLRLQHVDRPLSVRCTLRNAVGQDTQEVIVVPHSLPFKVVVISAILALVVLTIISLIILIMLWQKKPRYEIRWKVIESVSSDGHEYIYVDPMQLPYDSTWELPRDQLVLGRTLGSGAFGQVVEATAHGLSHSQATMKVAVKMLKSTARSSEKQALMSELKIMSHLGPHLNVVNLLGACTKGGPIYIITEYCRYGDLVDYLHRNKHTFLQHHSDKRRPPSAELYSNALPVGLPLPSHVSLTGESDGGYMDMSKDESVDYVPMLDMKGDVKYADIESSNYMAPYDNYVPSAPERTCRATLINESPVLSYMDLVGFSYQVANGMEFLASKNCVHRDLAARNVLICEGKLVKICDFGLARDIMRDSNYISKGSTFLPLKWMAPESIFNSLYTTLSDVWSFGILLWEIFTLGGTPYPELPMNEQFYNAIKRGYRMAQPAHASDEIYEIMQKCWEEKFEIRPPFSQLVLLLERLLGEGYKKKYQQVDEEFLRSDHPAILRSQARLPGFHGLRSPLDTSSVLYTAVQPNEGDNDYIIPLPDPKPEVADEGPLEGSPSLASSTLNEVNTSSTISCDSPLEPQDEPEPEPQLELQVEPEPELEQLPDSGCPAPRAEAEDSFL

Row | GCTM2 expression (ELISA-based assay; hES cells treated 2 weeks in serum-free medium with S1P plus PDGF-AB) (% more GCTM2+ than the controls) [1] | GCTM2 expression (ELISA-based assay; hES cells treated 2 weeks in serum-free medium with S1P plus PDGF-AB) (% more GCTM2+ than the controls) [2] | GCTM2 expression (ELISA-based assay; hES cells treated 2 weeks in serum-free medium with S1P plus PDGF-AA) [2] | Substance
1 | 153 | 153 |  | Human PDGF-AB (from UniProt P04085 87-211; P01127 82-190) (ligand)
2 |  |  | 220 % of control | Human PDGF-AA (from UniProt P04085 87-211) (ligand)
